Laboratory results taken from patent US20190127438.

Experiments:
[1] = target: T1, protease resistant A43-FceRIa (K43 to A43 variant of recombinant human FceRIa)
T1 chain 1: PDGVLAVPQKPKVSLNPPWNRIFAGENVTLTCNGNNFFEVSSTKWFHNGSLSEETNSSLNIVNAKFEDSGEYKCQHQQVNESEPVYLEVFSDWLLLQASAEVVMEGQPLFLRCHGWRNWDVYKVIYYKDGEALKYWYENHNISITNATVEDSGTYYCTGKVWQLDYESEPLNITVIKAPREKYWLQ
T1 chain 2: HHHHHH

[2] = target: T2, recombinant wild type FceRIa (extracellular region of the alpha chain of the human high-affinity IgE receptor, spacer, 6His)
T2 chain: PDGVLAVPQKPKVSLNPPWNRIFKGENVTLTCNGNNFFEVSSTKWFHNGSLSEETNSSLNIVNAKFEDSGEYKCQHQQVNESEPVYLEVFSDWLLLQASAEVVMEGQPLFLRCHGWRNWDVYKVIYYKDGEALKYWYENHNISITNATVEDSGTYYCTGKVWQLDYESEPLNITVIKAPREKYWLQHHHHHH

B1: plasmin (Sigma P1867) (protein)
chain: KVYLSECKTGNGKNYRGTMSKTKNGITCQKWSSTSPHRPRFSPATHPSEGLEENYCRNPDNDPQGPWCYTTDPEKRYDYCDILECEEECMHCSGENYDGKISKTMSGLECQAWDSQSPHAHGYIPSKFPNKNLKKNYCRNPDRELRPWCFTTDPNKRWELCDIPRCTTPPPSSGPTYQCLKGTGENYRGNVAVTVSGHTCQHWSAQTPHTHNRTPENFPCKNLDENYCRNPDGKRAPWCHTTNSQVRWEYCKIPSCDSSPVSTEQLAPTAPPELTPVVQDCYHGDGQSYRGTSSTTTTGKKCQSWSSMTPHRHQKTPENYPNAGLTMNYCRNPDADKGPWCFTTDPSVRWEYCNLKKCSGTEASVVAPPPVVLLPDVETPSEEDCMFGNGKGYRGKRATTVTGTPCQDWAAQEPHRHSIFTPETNPRAGLEKNYCRNPDGDVGGPWCYTTNPRKLYDYCDVPQCAAPSFDCGKPQVEPKKCPGRVVGGCVAHPHSWPWQVSLRTRFGMHFCGGTLISPEWVLTAAHCLEKSPRPSSYKVILGAHQEVNLEPHVQEIEVSRLFLEPTRKDIALLKLSSPAVITDKVIPACLPSPNYVVADRTECFITGWGETQGTFGAGLLKEAQLPVIENKVCNRYEFLNGRVQSTELCAGHLAGGTDSCQGDSGGPLVCFEKDKYILQGVTSWGLGCARPNKPGVYVRVSRFVTWIEGVMRNN
B1 was tested, and the “plasmin cleavage, Base Peak Chromatogram (LC-MS)” value [1] was “complete absence of a cleavage product in the mutant, protease resistant variant of recombinant A43-FceRIa (black line), whereas the wild type receptor digest peak appears at 30 min (grey line)” and the “plasmin cleavage, peptides in the Base Peak Chromatogram (LC-MS)” value [2] was “Site K43 (indicated as peptide K in FIG. 2B) of recombinant wt FceRIa was preferentially cleaved whereas plasmin cleavage sites K31, R40, K201, R199, K196 and K142 (indicated as peptide 1-8 in FIG. 2B) were cleaved to lesser extent”.
